Experimental data from patent US20240392004A1 (IMMUNOWAKE, published 2024).
Residue numbers refer to the chain shown, from its start. In names and notes the source's numbering stands.

T1: human IL-2 receptor (IL-2Rα, IL-2Rβ, IL-2Rγ) (human, UniProt P01589 22-272; P14784 27-551; P31785 23-369)
T1 sequence (looked up) 1: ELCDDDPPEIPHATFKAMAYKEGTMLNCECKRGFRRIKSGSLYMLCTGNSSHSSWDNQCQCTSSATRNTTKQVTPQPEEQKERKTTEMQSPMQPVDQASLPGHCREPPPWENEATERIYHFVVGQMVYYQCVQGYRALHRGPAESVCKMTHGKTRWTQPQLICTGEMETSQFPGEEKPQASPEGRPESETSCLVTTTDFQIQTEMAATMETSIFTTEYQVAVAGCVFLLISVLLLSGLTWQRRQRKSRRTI
T1 sequence (looked up) 2: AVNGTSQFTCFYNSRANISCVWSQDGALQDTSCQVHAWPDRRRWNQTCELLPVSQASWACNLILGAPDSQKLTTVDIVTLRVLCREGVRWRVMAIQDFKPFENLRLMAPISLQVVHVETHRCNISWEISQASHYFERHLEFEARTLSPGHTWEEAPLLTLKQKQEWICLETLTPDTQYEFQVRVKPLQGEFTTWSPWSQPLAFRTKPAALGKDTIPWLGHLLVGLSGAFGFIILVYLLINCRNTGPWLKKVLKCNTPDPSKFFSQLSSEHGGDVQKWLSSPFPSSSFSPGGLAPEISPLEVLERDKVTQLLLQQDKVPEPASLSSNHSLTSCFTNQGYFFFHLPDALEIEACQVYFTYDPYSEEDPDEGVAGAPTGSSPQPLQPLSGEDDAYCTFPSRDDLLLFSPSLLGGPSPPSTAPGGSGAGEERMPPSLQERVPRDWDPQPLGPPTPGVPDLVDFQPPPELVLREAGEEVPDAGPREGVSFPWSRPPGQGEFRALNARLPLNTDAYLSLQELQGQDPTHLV
T1 sequence (looked up) 3: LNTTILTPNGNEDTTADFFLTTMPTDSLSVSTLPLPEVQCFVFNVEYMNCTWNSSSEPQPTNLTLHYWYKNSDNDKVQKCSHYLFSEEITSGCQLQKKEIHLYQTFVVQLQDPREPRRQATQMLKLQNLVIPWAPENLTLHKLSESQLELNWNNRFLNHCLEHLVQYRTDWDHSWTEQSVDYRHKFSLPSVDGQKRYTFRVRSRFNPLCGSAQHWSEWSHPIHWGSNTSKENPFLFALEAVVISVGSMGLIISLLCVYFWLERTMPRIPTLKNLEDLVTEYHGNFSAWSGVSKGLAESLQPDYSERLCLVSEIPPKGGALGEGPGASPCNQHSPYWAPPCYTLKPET

B1: IL-2(R38D/K43E/E61R)/PD-L1(mut2)-Fc (Fc fusion)
chain 1: FTVTVPKDLYVVEYGSNMTIECKFPVEKQLDLAALQVYWMMEDKNIIQFVHGEEDLKVQHSSYRQRARLLKDQLSLGNAALQITDVKLQDAGVYTCLIAYKGADYKRITVKVNAPYNKINQRILVVDPVTSEHELTCQAEGYPKAEVIWTSSDHQVLSGKTTTTNSKREEKLFNVTSTLRINTTTNEIFYCTFRRLDPEENHTAELVIPELPLAHPPNERGGGGSGGGDKTHTCPPCPAPEDEGGPSVFLFPPKPKDTLMISRTPEVTCVVVDVSHEDPEVKFNWYVDGVEVHNAKTKPREEQYNSTYRVVSVLTVLHQDWLNGKEYKCKVSNKALPAPIEKTISKAKGQPREPQVYVYPPSREEMTKNQVSLTCLVKGFYPSDIAVEWESNGQPENNYKTTPPVLDEDGSFALVSKLTVDKSRWQQGNVFSCSVMHEALHNHYTQKSLSLSPGK
chain 2: FTVTVPKDLYVVEYGSNMTIECKFPVEKQLDLAALQVYWMMEDKNIIQFVHGEEDLKVQHSSYRQRARLLKDQLSLGNAALQITDVKLQDAGVYTCLIAYKGADYKRITVKVNAPYNKINQRILVVDPVTSEHELTCQAEGYPKAEVIWTSSDHQVLSGKTTTTNSKREEKLFNVTSTLRINTTTNEIFYCTFRRLDPEENHTAELVIPELPLAHPPNERGGGSGAPTSSSTKKTQLQLEHLLLDLQMILNGINNYKNPKLTDMLTFEFYMPKKATELKHLQCLERELKPLEEVLNLAQSKNFHLRPRDLISNINVIVLELKGSETTFMCEYADETATIVEFLNRWITFCQSIISTLTGGGGSGGGDKTHTCPPCPAPEKKGGPSVFLFPPKPKDTLMISRTPEVTCVVVDVSHEDPEVKFNWYVDGVEVHNAKTKPREEQYNSTYRVVSVLTVLHQDWLNGKEYKCKVSNKALPAPIEKTISKAKGQPREPQVYVLPPSREEMTKNQVSLLCLVKGFYPSDIAVEWESNGQPENRYMTWPPVLDSDGSFFLYSKLTVDKSRWQQGNVFSCSVMHEALHNHYTQKSLSLSPGK
B2: IL-2(R38D/K43E/E61R/Q126T)/PD-L1(mut2)-Fc (Fc fusion)
chain 1: B1 chain 1
chain 2: B1 chain 2 with Q351T
B3: IL-2(L18R/Q22E/R38D/K43E/E61R/Q126T)/PD-L1(mut2)-Fc (Fc fusion)
chain 1: B1 chain 1
chain 2: B1 chain 2 with L243R, Q247E, Q351T
B4: IL-2(L18R/Q22E/R38D/K43E/E61R/Q126T/S130R)/PD-L1(mut2)-Fc (Fc fusion)
chain 1: B1 chain 1
chain 2: B1 chain 2 with L243R, Q247E, Q351T, S355R
B5: IL-2(L18R/Q22E/R38D/K43E/E61R)/PD-L1(mut2)-Fc (Fc fusion)
chain 1: B1 chain 1
chain 2: B1 chain 2 with L243R, Q247E

Columns and labels:
[1] = molecular target: human PD-1 on cells (HEK-PD-1 reporter cells; activated PBMC) (human, UniProt Q15116 25-288); assay: cell-based or functional assay
Chain of human PD-1 on cells (HEK-PD-1 reporter cells; activated PBMC) (Q15116 25-288): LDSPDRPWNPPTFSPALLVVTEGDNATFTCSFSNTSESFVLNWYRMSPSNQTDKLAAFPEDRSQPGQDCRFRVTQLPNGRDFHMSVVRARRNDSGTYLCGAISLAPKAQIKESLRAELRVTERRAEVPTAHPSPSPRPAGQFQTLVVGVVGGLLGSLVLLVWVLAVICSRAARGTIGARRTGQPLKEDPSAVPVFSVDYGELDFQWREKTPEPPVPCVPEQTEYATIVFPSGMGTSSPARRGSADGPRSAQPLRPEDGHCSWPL

[2] = molecular target: T1, human IL-2 receptor (IL-2Rα, IL-2Rβ, …); assay: cell-based or functional assay

Row | Binder | IL-2 signal transduction, HEK-IL-2-PD-1 [1] | IL-2 signal transduction, HEK-IL-2 [2]
1 | B1 | 76% | 16%
2 | B2 | 20% | 2%
3 | B3 | 5% | < 0.1%
4 | B4 | < 0.1% | < 0.1%
5 | B5 | 35% | 4%
